{"source": "patent US20150307603A1", "about": "(MODIQUEST B V, published 2015)", "key": {"CFC-1 [1]": {"target": "T1, CFC-1", "T1 construct": "Positive control for anti-citrulline reactivity; also called cfc1 XG; Cfc1-peptide", "assay": "ELISA, Ab 0.0032 ug/well", "description": "(§1) The resulting OD (y-axis) is a measure for antibody binding. H1-recombinant histone 1; H1/p2-huPAD2 recombinant histone 1; H1/p4-huPAD4 recombinant histone 1, and so forth (x-axis)."}, "[2]": {"target": "T2, human recombinant histone 2B (human)", "T2 construct": "Non-deiminated; also called H2B", "assay": "ELISA, Ab 0.0032 ug/well", "description": "as §1"}, "[3]": {"target": "T3, huPAD4-deiminated human recombinant histone 3 (human)", "T3 construct": "also called H3/p4", "assay": "ELISA, Ab 0.0032 ug/well", "description": "as §1"}, "[4]": {"target": "T4, huPAD2-deiminated human recombinant histone 3 (human)", "T4 construct": "also called H3/p2; histone 3/p2", "assay": "ELISA, Ab 0.0032 ug/well", "description": "as §1"}, "[5]": {"target": "T5, huPAD2-deiminated human recombinant histone 2A (human)", "T5 construct": "also called H2A/p2; histone 2A/p2", "assay": "ELISA, Ab 0.0032 ug/well", "description": "as §1"}, "[6]": {"target": "human recombinant histone 4 (human, UniProt P62805 2-103)", "assay": "ELISA, Ab 0.0032 ug/well", "description": "as §1"}, "[7]": {"target": "T6, huPAD2-deiminated human recombinant histone 2B (human)", "T6 construct": "also called H2B/p2", "assay": "ELISA, Ab 0.0032 ug/well", "description": "as §1"}, "[8]": {"target": "T7, huPAD4-deiminated human recombinant histone 2B (human)", "T7 construct": "also called H2B/p4", "assay": "ELISA, Ab 0.0032 ug/well", "description": "as §1"}, "CFC-1 [9]": {"target": "T1, CFC-1", "assay": "ELISA, Ab 10 ug/well", "method": "(§2) Biotin and citrulline-containing peptides derived from histone 2A were immobilized on NEUTRAVIDIN®-coated 96-well ELISA plates (0.3 μg/well). CFC-1 and CFC-0 were coated at the same concentration and served as positive and negative controls, respectively, for specific anti-citrulline reactivity and as coating controls. Non-coated wells were used to test for aspecific binding of the antibodies. […] Detection of bound anti-citrulline antibodies was performed by incubating the wells with rabbit anti-human HRP (1:2000) for 1 hour at RT followed by incubation with TMB substrate. The resulting OD (y-axis) is a measure for antibody binding."}, "[10]": {"target": "T8, peptide no. 10 (human histone 2A) (human, also: biotin-labelled)", "T8 construct": "also called peptide 10", "T8 peptide": "TRIIP[Cit]HLQLAI", "assay": "ELISA, Ab 10 ug/well", "method": "as §2"}, "[11]": {"target": "T9, peptide no. 8 (human histone 2A) (human, also: biotin-labelled)", "T9 construct": "also called peptide 8", "T9 peptide": "AGNAA[Cit]DNKKTR", "assay": "ELISA, Ab 10 ug/well", "method": "as §2"}, "[12]": {"target": "T10, peptide no. 2 (human histone 2A) (human, also: biotin-labelled)", "T10 construct": "also called peptide 2", "T10 peptide": "AKAKS[Cit]SSRAGL", "assay": "ELISA, Ab 10 ug/well", "method": "as §2"}, "[13]": {"target": "T11, peptide no. 12 (human histone 2A) (human, also: biotin-labelled)", "T11 construct": "also called peptide 12", "T11 peptide": "NKLLG[Cit]VTIAQG", "assay": "ELISA, Ab 10 ug/well", "method": "as §2"}, "[14]": {"target": "T12, peptide no. 4 (human histone 2A) (human, also: biotin-labelled)", "T12 construct": "also called peptide 4", "T12 peptide": "QFPVG[Cit]VHRLLR", "assay": "ELISA, Ab 10 ug/well", "method": "as §2"}, "[15]": {"target": "T13, peptide no. 11 (human histone 2A) (human, also: biotin-labelled)", "T13 construct": "also called peptide 11", "T13 peptide": "LQLAI[Cit]NDEELN", "assay": "ELISA, Ab 10 ug/well", "method": "as §2"}, "[16]": {"target": "T14, peptide no. 5 (human histone 2A) (human, also: biotin-labelled)", "T14 construct": "also called peptide 5", "T14 peptide": "VGRVH[Cit]LLRKGN", "assay": "ELISA, Ab 10 ug/well", "method": "as §2"}, "[17]": {"target": "T15, peptide no. 7 (human histone 2A) (human, also: biotin-labelled)", "T15 construct": "also called peptide 7", "T15 peptide": "GNYSE[Cit]VGAGAP", "assay": "ELISA, Ab 10 ug/well", "method": "as §2"}, "[18]": {"target": "T16, peptide no. 6 (human histone 2A) (human, also: biotin-labelled)", "T16 construct": "also called peptide 6", "T16 peptide": "VHRLL[Cit]KGNYSE", "assay": "ELISA, Ab 10 ug/well", "method": "as §2"}, "[19]": {"target": "T17, peptide no. 9 (human histone 2A) (human, also: biotin-labelled)", "T17 construct": "also called peptide 9", "T17 peptide": "DNKKT[Cit]IIPRHL", "assay": "ELISA, Ab 10 ug/well", "method": "as §2"}, "[20]": {"target": "T18, peptide no. 1 (human histone 2A) (human, also: biotin-labelled)", "T18 construct": "also called peptide 1; AAASGXGKQGGK", "T18 peptide": "AAASG[Cit]GKQGGK", "assay": "ELISA, Ab 10 ug/well", "method": "as §2"}, "CFC-1 [21]": {"target": "T1, CFC-1", "assay": "ELISA, Ab 0.000128 ug/well", "method": "as §2, with “fibrinogen and vimentin” for “histone 2A”\n(§3) Biotin-labeled and citrulline-containing fibrinogen and vimentin peptides (Table 5) were also tested for reactivity with the therapeutic antibodies. Peptides were coated on 96-well NEUTRAVIDIN®-ELISA plates."}, "msFibβ XG": {"target": "T19, msFibβ XG (mouse, also: biotin-labelled)", "T19 construct": "also called mouse fibrinogen β peptide", "T19 peptide": "EPTDSLDA[Cit]GHRPVDRR", "assay": "ELISA, Ab 0.000128 ug/well", "method": "as §2, with “fibrinogen and vimentin” for “histone 2A”\nas §3"}, "msVim XS/XL": {"target": "T20, msVim XS/XL (mouse, also: biotin-labelled)", "T20 construct": "also called mouse vimentin peptide", "T20 peptide": "YVT[Cit]SSAV[Cit]L[Cit]SSVP", "assay": "ELISA, Ab 0.000128 ug/well", "method": "as §2, with “fibrinogen and vimentin” for “histone 2A”\nas §3"}, "huFibα XG": {"target": "T21, huFibα XG (human, X at position 8 = citrulline; biotin-labelled)", "T21 peptide": "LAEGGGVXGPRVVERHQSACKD", "assay": "ELISA, Ab 0.000128 ug/well", "method": "as §2, with “fibrinogen and vimentin” for “histone 2A”\nas §3"}, "msFibα XH": {"target": "T22, msFibα XH (mouse, X at position 15 = citrulline; biotin-labelled)", "T22 peptide": "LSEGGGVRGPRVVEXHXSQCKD", "assay": "ELISA, Ab 0.000128 ug/well", "method": "as §2, with “fibrinogen and vimentin” for “histone 2A”\nas §3"}, "huFibα XH": {"target": "T23, huFibα XH (human, X at position 15 = citrulline; biotin-labelled)", "T23 peptide": "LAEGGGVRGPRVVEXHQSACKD", "assay": "ELISA, Ab 0.000128 ug/well", "method": "as §2, with “fibrinogen and vimentin” for “histone 2A”\nas §3"}, "msFibα XG": {"target": "T24, msFibα XG (mouse, X at position 8 = citrulline; biotin-labelled)", "T24 peptide": "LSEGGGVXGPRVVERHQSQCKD", "assay": "ELISA, Ab 0.000128 ug/well", "method": "as §2, with “fibrinogen and vimentin” for “histone 2A”\nas §3"}}, "note": "Non-standard residues stand in square brackets, D forms with d. No end group written: not given here. Cit = NC(=O)NCCC[C@H](N)C(=O)O", "data": [{"binder": "RhmAb2.102 (antibody, human IgG1, lambda, Human IgG1 lambda; also called Rhm2.102) heavy: not shown light: QSVLTQPPSMSAAPGQKVTISCSGSSSNIGNNYVSWYQQVPGTAPKLLIYDDNKRPSGIPGRFSGSKSATSATLGITGLQAGDEADYYCGSWDDNLSVVLFGGGTKLTVLGQPKAAPSVTLFPPSSEELQANKATLVCLISDFYPGAVTVAWKADSSPVKAGVETTTPSKQSNNKYAASSYLSLTPEQWKSHRSYSCQVTHEGSTVEKTVAPTECS", "values": [{"measurement": "OD", "setting": "CFC-1 [1]", "value": 0.178, "unit": "OD450"}, {"measurement": "OD", "setting": "[2]", "value": 0.05, "unit": "OD450"}, {"measurement": "OD", "setting": "[3]", "value": 0.065, "unit": "OD450"}, {"measurement": "OD", "setting": "[4]", "value": 0.08, "unit": "OD450"}, {"measurement": "OD", "setting": "[5]", "value": 0.161, "unit": "OD450"}, {"measurement": "OD", "setting": "[6]", "value": 0.06, "unit": "OD450"}, {"measurement": "OD", "setting": "[7]", "value": 0.052, "unit": "OD450"}, {"measurement": "OD", "setting": "[8]", "value": 0.052, "unit": "OD450"}, {"measurement": "OD", "setting": "CFC-1 [9]", "value": 3.27, "unit": "OD450"}, {"measurement": "OD", "setting": "[10]", "value": 0.091, "unit": "OD450"}, {"measurement": "OD", "setting": "[11]", "value": 0.082, "unit": "OD450"}, {"measurement": "OD", "setting": "[12]", "value": 0.552, "unit": "OD450"}, {"measurement": "OD", "setting": "[13]", "value": 0.083, "unit": "OD450"}, {"measurement": "OD", "setting": "[14]", "value": 2.06, "unit": "OD450"}, {"measurement": "OD", "setting": "[15]", "value": 0.088, "unit": "OD450"}, {"measurement": "OD", "setting": "[16]", "value": 0.239, "unit": "OD450"}, {"measurement": "OD", "setting": "[17]", "value": 0.08, "unit": "OD450"}, {"measurement": "OD", "setting": "[18]", "value": 1.41, "unit": "OD450"}, {"measurement": "OD", "setting": "[19]", "value": 0.09, "unit": "OD450"}, {"measurement": "OD", "setting": "[20]", "value": 3.11, "unit": "OD450"}, {"measurement": "OD", "setting": "CFC-1 [21]", "value": 0.288, "unit": "OD450"}, {"measurement": "OD", "setting": "msFibβ XG", "value": 0.118, "unit": "OD450"}, {"measurement": "OD", "setting": "msVim XS/XL", "value": 0.133, "unit": "OD450"}, {"measurement": "OD", "setting": "huFibα XG", "value": 0.115, "unit": "OD450"}, {"measurement": "OD", "setting": "msFibα XH", "value": 0.089, "unit": "OD450"}, {"measurement": "OD", "setting": "huFibα XH", "value": 0.12, "unit": "OD450"}, {"measurement": "OD", "setting": "msFibα XG", "value": 0.119, "unit": "OD450"}]}]}
